In patent US12269859B2, “Synthetic immune receptors and methods of use thereof” (Angeles Therapeutics, Inc., priority 2016, dated 2025):

Experiments:
[1] = FACS detection of CARs and SIRs by Myc and Protein L staining (cell surface expression); assay type: cell-based, human; conditions: staining with APC-conjugated Protein-L, Jurkat-NFAT-GFP cells
Procedure: FACS analysis. Mouse Anti-Human c-Myc APC-conjugated Monoclonal Antibody (Catalog #IC3696A) was from R&D Systems (Minneapolis, MN). Biotinylated protein L was purchased from GeneScript (Piscataway, NJ), reconstituted in phosphate buffered saline (PBS) at 1 mg/ml and stored at 4° C. Streptavidin-APC (SA1005) was purchased from ThermoFisher Scientific.
For detection of CARs and SIRs using Myc staining, 1×10^6 cells were harvested and washed three times with 3 ml of ice-cold 1×PBS containing 4% bovine serum albumin (BSA) wash buffer. After wash, cells were resuspended in 0.1 ml of the ice-cold wash buffer containing 10 μl of APC-conjugated Myc antibody and incubated in dark for 1 hour followed by two washings with ice cold wash buffer.
For detection of CARs and SIRs using Protein L staining, 1×10^6 cells were harvested and washed three times with 3 ml of ice-cold 1×PBS containing 4% bovine serum albumin (BSA) wash buffer. After wash, cells were resuspended in 0.1 ml of the ice-cold wash buffer containing 1 μg of protein L at 4° C. for 1 hour. Cells were washed three times with ice-cold wash buffer, and then incubated (in the dark) with 10 μl of APC-conjugated streptavidin in 0.1 ml of the wash buffer for 30 minutes followed by two washings with ice cold wash buffer. FACS was done using FACSVerse analyzer from BD Biosciences.

RAJI cells = assay: Jurkat NFAT-GFP assay, coculture with RAJI cells; assay type: cell-based, human; conditions: GFP expression upon 18 hour co-culture with RAJI cells; Table 10B
Procedure: (B) Induction of NFAT promoter driven GFP expression. The control vector- and SIR-expressing Jurkat-NFAT-GFP cocultured for 4-24 hours with the target antigen-expressing cell line (described above) and their ability to bind to the target antigen is assayed by measuring induction of GFP expression using Flow Cytometry. Cellular supernatant is collected and assayed for the induction of cytokines (e.g., IL2).
Jurkat NFAT-GFP Assay For Synthetic Immune Receptors. The Jurkat-NFAT-GFP cells are engineered in such a way that the IL-2 promoter, which carries NFAT binding sites, is cloned upstream of the GFP gene. These cells have been used to study signaling via TCR and CAR. The different SIRs were stably expressed in Jurkat NFAT-GFP cells by lentiviral mediated gene transfer, followed by selection with puromycin. The SIR-expressing Jurkat-NFAT-GFP cells were cocultured with the target cells at E:T ratio of approximately 1:2 for approximately 4 hours to 18 hours. When the interaction between SIRs and their target antigen results in activation of the NFAT pathway, GFP expression is induced.
Induction of GFP expression by coculturing of Jurkat-NFAT-GFP cells expressing different SIR constructs and the different target cells was studied essentially as described previously (Wu, Roybal, Puchner, Onuffer, & Lim, 2015). GFP expression was monitored by FACS analysis. […] In panel B, Jurkat cells expressing SIR targeting CDH6 (Clone ID: 051716-J05), CD276 (Clone ID: 050516-Q06) and Her2/neu (Clone ID: 050516-I03) were incubated with SKOV3 (top) and […] (middle and bottom) cells, respectively. […] The Jurkat-NFAT-GFP cells were engineered to express different SIRs targeting other antigens and the experiment repeated upon coculture with the target cells expressing their respective target antigen. The Jurkat-NFAT-GFP (parental) cells were used as control. […] The names of different SIRs, their SEQ ID NOs, component antigen binding domains and TCR chains can be determined by reference to Tables 7A-7H. A SIR is considered positive in the assay in case the SIR expressing Jurkat-NFAT-GFP cells show greater % GFP positive cells when cultured with the target cell line as compared to parental Jurkat-NFAT-GFP cells. […] The signs +/−, +, 2+ etc. after the name of the cell lines indicate the relative degree of positivity on the Jurkat-NFAT-GFP assay as measured by the % GFP positive cells after culture of the SIR expressing Jurkat-NFAT-GFP cells with that cell line.

[2] = tested on: target antigen-expressing cell line; assay: Jurkat NFAT-GFP assay, coculture with target cell lines expressing the respective target antigen (summary Table 10A); assay type: cell-based, human; set-up: key: The signs +/−, +, 2+ etc. after the name of the cell lines indicate the relative degree of positivity on the Jurkat-NFAT-GFP assay as measured by the % GFP positive cells; +: relative degree of positivity on the Jurkat-NFAT-GFP assay as measured by the % GFP positive cells; 2+: relative degree of positivity on the Jurkat-NFAT-GFP assay as measured by the % GFP positive cells
In short: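 Read-out: % GFP+ cells by FACS. SIR-transduced, puromycin-selected Jurkat NFAT-GFP (IL-2 promoter reporter) cocultured ~4–18 h with target line, E:T ~1:2; parental cells as control; graded +/−, +, 2+ relative to parental.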

SKOV-3 cells = assay: SKOV-3 intraperitoneal xenograft in NSG mice (survival); assay type: in vivo; conditions: NSG mice (n = 3), 1×10^6 SKOV-3 cells intraperitoneally, 5 million T cells intravenously
Procedure: Human peripheral blood T cells isolated using CD3 magnetic beads were infected with lentiviruses expressing the indicated SIR constructs targeting Folate receptor 1 (FR1), L1CAM and Epcam1. On day 1, the NSG mice were sub-lethally irradiated at a dose of 175 cGy. 24 hours post irradiation (day 2), mice were injected with 1×10^6 SKOV-3 cells intraperitoneally. On day 3, the mice were treated intravenously with 5 million indicated CAR-T cells. Beginning On day 4, mice were injected with human IL-2 i.p. at a dose of 400 IU/mice every alternate day after the injection CAR-T cells till the death of all mice in control group.

B1: 10492 (protein)
chain: MALPVTALLLPLALLLHAARPDVVMTQSPSSLSASVGDRVTITCRASQDISKYLNWYQQKPGKAPKLLIYHTSRLHSGVPSRFSGSGSGTDFTLTISSLQPEDFATYYCQQGNTLPYTFGGGTKVEIKLEDLKNVFPPEVAVFCPSEAEISHTQKATLVCLATGFYPDHVELSWWVNGKEVHSGVSTDPQPLKEQPALNDSRYCLSSRLRVSATFWQNPRNHFRCQVQFYGLSENDEWTQDRAKPVTQIVSAEAWGRADCGFTSESYQQGVLSATILYEILLGKATLYAVLVSALVLMAMVKRKDSRGRAKRSGSGATNFSLLKQAGDVEENPGPTSMDWIWRILFLVGAATGAHSFEQVQLQESGPGLVKPSQTLSLTCTVSGVSLPDYGVSWIRQPPGKGLEWIGVIWGSETTYYNSALKSRVLISVDTSKNQVSLKLSSVTAADTAVYYCARHYYYGGSYAMDYWGQGTTVTVSSTRIQNPDPAVYQLRDCKSSDKSVCLFTDFDSQTNVSQSKDSDVYITDKTVLDMRSMDFKSNSAVAWSNKSDFACANAFNNSIIPEDTFFPSPESSCDVKLVEKSFETDTNLNFQNLSVIGFRILLLKVAGFNLLMTLRLWSS
[1]
  Prt-L-APC (%): 8%
RAJI cells
  NFAT-GFP (%): 2.48%

B2: 10495 (protein)
chain: MALPVTALLLPLALLLHAARPDVVMTQSPSSLSASVGDRVTITCRASQDISKYLNWYQQKPGKAPKLLIYHTSRLHSGVPSRFSGSGSGTDFTLTISSLQPEDFATYYCQQGNTLPYTFGGGTKVEIKLEDLKNVFPPEVAVFEPCEAEISHTQKATLVCLATGFYPDHVELSWWVNGKEVHSGVSTDPQPLKEQPALNDSRYCLSSRLRVSATFWQNPRNHFRCQVQFYGLSENDEWTQDRAKPVTQIVSAEAWGRADCGFTSESYQQGVLSATILYEILLGKATLYAVLVSALVLMAMVKRKDSRGRAKRSGSGATNFSLLKQAGDVEENPGPTSMDWIWRILFLVGAATGAHSFEQVQLQESGPGLVKPSQTLSLTCTVSGVSLPDYGVSWIRQPPGKGLEWIGVIWGSETTYYNSALKSRVLISVDTSKNQVSLKLSSVTAADTAVYYCARHYYYGGSYAMDYWGQGTTVTVSSTRIQNPDPAVCQLRDSKSSDKSVCLFTDFDSQTNVSQSKDSDVYITDKTVLDMRSMDFKSNSAVAWSNKSDFACANAFNNSIIPEDTFFPSPESSCDVKLVEKSFETDTNLNFQNLSVIGFRILLLKVAGFNLLMTLRLWSS
[1]
  Prt-L-APC (%): 0%
RAJI cells
  NFAT-GFP (%): 1.99%

B3: 10493 (protein)
chain: MALPVTALLLPLALLLHAARPDVVMTQSPSSLSASVGDRVTITCRASQDISKYLNWYQQKPGKAPKLLIYHTSRLHSGVPSRFSGSGSGTDFTLTISSLQPEDFATYYCQQGNTLPYTFGGGTKVEIKLEDLKNVFPPEVAVFEPSEAEISHTQKATLVCLATGFYPDHVELSWWVNGKEVHSGVSTCPQPLKEQPALNDSRYCLSSRLRVSATFWQNPRNHFRCQVQFYGLSENDEWTQDRAKPVTQIVSAEAWGRADCGFTSESYQQGVLSATILYEILLGKATLYAVLVSALVLMAMVKRKDSRGRAKRSGSGATNFSLLKQAGDVEENPGPTSMDWIWRILFLVGAATGAHSFEQVQLQESGPGLVKPSQTLSLTCTVSGVSLPDYGVSWIRQPPGKGLEWIGVIWGSETTYYNSALKSRVLISVDTSKNQVSLKLSSVTAADTAVYYCARHYYYGGSYAMDYWGQGTTVTVSSTRIQNPDPAVYQLRDSKSSDKSVCLFTDFDSQTNVSQSKDSDVYICDKTVLDMRSMDFKSNSAVAWSNKSDFACANAFNNSIIPEDTFFPSPESSCDVKLVEKSFETDTNLNFQNLSVIGFRILLLKVAGFNLLMTLRLWSS
[1]
  Prt-L-APC (%): 9%
RAJI cells
  NFAT-GFP (%): 1.35%

B4: 10494 (protein)
chain: MALPVTALLLPLALLLHAARPDVVMTQSPSSLSASVGDRVTITCRASQDISKYLNWYQQKPGKAPKLLIYHTSRLHSGVPSRFSGSGSGTDFTLTISSLQPEDFATYYCQQGNTLPYTFGGGTKVEIKLEDLKNVFPPEVAVFEPSEAEISHTQKATLVCLATGFYPDHVELSWWVNGKEVHSGVSTDPQPLKEQPALNDSRYCLCSRLRVSATFWQNPRNHFRCQVQFYGLSENDEWTQDRAKPVTQIVSAEAWGRADCGFTSESYQQGVLSATILYEILLGKATLYAVLVSALVLMAMVKRKDSRGRAKRSGSGATNFSLLKQAGDVEENPGPTSMDWIWRILFLVGAATGAHSFEQVQLQESGPGLVKPSQTLSLTCTVSGVSLPDYGVSWIRQPPGKGLEWIGVIWGSETTYYNSALKSRVLISVDTSKNQVSLKLSSVTAADTAVYYCARHYYYGGSYAMDYWGQGTTVTVSSTRIQNPDPAVYQLRDSKSSDKSVCLFTDFDSQTNVSQSKDSDVYICDKTVLDMRSMDFKSNSAVAWSNKSDFACANAFNNSIIPEDTFFPSPESSCDVKLVEKSFETDTNLNFQNLSVIGFRILLLKVAGFNLLMTLRLWSS
[1]
  Prt-L-APC (%): 7%
RAJI cells
  NFAT-GFP (%): 0.9%

B5: 121815-C05 (protein)
chain: MALPVTALLLPLALLLHAARPDELQMTQSPSSLSASVGDRVTITCRASQSISSYLNWYQQKPGQPPKLLIYWASTRESGVPDRFSGSESGTNYTLTISSLQPEDFATYFCQQSDSLPITFGQGTRLDIQLEGKPIPNPLLGLDSTGSGEDLKNVFPPEVAVFEPSKAEIAHTQKATLVCLATGFYPDHVELSWWVNGKEVHSGVCTDPQPLKEQPALNDSRYCLSSRLRVSATFWQNPRNHFRCQVQFYGLSENDEWTQDRAKPVTQIVSAEAWGRADCGITSASYHQGVLSATILYEILLGKATLYAVLVSALVLMAMVKRKDSRGRAKRSGSGATNFSLLKQAGDVEENPGPTSMDWIWRILFLVGAATGAHSFEEVQLLESGGGVVQPGRSLRLSCAASGFTFSSYGMHWVRQAPGKGLEWVAVISYDGSNKYYADSVKGRFTISRDNSKNTLYLQMNSLRAEDTAVYYCAKDMGWGSGWRPYYYYGMDVWGQGTTVTVSSTREQKLISEEDGSGIQNPDPAVYQLRDSKSSDKSVCLFTDFDSQTNVSQSKDSDVYITDKCVLDMRSMDFKSNSAVAWSNKSDFACANAFNNSIIPEDTFFPSSDVPCDVKLVEKSFETDTNLNFQNLSVIGFRILLLKVAGFNLLMTLRLWSSRAKRSGSGVKQTLNFDLLKLAGDVESNPGPSRGHMTEYKPTVRLATRDDVPRAVRTLAAAFADYPATRHTVDPDRHIERVTELQELFLTRVGLDIGKVWVADDGAAVAVWTTPESVEAGAVFAEIGPRMAELSGSRLAAQQQMEGLLAPHRPKEPAWFLATVGVSPDHQGKGLGSAVVLPGVEAAERAGVPAFLETSAPRNLPFYERLGFTVTADVEVPEGPRTWCMTRKPGA
modifications: Synthetic Immune Receptor (SIR)
[2]; coculture with A549 cells
  NFAT-GFP ASSAY Positive Cell lines: A549 (2+), Hela
[2]; coculture with PC3 cells
  NFAT-GFP ASSAY Positive Cell lines: 2+
[2]; coculture with SKOV3 cells
  NFAT-GFP ASSAY Positive Cell lines: (+)
SKOV-3 cells
  Median Survival: 63 days
